According to patent US20170158755A1 (PROTHENA BIOSCIENCES, published 2017):

T1: human LAMA4 G domain (LG1-5) displayed on 293 cells (human, UniProt Q16363 830-1821)
T1 construct: the vector's tags and membrane anchor are not written here; also called LAMA4-displaying human 293 cells; full length
T1 sequence: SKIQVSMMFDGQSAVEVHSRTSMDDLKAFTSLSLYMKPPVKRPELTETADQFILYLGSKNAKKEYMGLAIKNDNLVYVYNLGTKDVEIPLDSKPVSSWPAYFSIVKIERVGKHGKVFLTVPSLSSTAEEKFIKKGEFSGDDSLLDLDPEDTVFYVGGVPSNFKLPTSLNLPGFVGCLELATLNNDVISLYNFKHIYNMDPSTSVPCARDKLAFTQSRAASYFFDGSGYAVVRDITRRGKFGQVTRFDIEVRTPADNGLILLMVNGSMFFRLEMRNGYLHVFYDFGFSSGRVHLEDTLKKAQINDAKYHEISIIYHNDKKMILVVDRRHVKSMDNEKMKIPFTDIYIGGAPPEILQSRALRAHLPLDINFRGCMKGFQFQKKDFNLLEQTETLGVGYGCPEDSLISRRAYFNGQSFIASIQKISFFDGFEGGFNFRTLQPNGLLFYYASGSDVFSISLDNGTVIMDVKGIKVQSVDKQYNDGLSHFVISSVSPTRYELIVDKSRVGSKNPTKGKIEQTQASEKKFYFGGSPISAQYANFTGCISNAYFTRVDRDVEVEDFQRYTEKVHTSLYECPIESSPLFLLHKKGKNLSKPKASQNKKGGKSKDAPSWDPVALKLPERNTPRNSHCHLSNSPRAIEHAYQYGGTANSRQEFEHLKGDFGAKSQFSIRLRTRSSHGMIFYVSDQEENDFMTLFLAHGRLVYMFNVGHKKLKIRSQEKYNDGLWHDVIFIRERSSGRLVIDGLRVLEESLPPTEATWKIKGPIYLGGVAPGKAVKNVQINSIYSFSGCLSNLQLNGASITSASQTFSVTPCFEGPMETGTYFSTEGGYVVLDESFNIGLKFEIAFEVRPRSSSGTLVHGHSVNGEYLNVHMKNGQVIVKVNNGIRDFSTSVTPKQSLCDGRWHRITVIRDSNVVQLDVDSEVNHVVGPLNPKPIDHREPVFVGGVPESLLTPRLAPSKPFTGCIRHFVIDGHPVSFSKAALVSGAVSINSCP

T2: LGde3, human LAMA4 G domain with LG3 deleted, displayed on 293 cells (human, UniProt Q16363 830-1821, limits assumed)
T2 construct: pDisplay construct on 293 cells; vector tags and anchor not written here; also called LGde3 (LG12); LGde3 (LG23)
T2 sequence: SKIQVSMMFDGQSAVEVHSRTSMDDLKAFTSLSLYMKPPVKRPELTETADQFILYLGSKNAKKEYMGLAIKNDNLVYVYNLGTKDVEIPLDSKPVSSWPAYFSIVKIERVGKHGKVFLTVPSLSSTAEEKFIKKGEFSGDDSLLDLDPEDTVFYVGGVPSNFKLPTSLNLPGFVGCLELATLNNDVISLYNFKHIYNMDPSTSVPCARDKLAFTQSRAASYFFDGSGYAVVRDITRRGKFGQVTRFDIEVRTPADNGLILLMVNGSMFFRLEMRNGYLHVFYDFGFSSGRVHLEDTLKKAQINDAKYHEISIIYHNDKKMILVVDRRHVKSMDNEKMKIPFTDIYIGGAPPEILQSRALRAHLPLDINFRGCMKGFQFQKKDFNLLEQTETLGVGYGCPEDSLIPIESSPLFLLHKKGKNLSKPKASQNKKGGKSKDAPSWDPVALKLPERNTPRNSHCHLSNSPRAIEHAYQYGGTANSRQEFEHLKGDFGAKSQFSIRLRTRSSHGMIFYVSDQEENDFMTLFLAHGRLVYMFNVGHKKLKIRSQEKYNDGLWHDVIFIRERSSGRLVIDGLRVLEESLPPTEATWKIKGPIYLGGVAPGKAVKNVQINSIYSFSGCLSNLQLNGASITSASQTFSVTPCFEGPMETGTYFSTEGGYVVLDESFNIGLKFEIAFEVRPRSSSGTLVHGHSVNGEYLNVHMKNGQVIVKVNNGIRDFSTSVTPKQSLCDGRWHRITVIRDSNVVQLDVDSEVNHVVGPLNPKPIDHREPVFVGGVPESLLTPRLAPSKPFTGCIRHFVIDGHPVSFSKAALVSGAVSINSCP

T3: human LAMA4 LG1-3 modules displayed on 293 cells (human, UniProt Q16363 830-1430)
T3 construct: pDisplay construct on 293 cells; vector tags and anchor not written here
T3 sequence: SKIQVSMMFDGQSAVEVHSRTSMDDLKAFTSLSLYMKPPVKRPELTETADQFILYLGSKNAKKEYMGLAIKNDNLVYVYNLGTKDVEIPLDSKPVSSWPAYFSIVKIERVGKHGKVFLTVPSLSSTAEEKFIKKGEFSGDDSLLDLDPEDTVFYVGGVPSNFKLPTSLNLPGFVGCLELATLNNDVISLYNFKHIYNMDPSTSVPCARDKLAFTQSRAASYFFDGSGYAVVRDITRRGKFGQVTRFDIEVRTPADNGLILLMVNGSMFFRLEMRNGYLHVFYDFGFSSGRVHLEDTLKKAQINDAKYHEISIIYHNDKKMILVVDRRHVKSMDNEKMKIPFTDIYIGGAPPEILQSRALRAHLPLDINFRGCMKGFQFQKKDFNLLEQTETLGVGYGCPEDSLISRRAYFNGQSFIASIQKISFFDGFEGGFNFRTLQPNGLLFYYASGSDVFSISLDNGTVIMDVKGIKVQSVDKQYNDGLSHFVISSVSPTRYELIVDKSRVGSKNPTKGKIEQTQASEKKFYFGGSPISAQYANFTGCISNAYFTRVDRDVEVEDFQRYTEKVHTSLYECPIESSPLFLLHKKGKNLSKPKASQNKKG


How the values were obtained:
[1] = molecular target: T1, human LAMA4 G domain (LG1-5) displayed …; experiment: LAMA4 pDisplay flow cytometric blocking assay on LAMA4-displaying 293 cells; blocked ligand: 650-conjugated mouse MCAM-Fc
[2] = molecular target: T2, LGde3, human LAMA4 G domain with LG3 …; experiment: flow cytometry, 650-labeled MCAM-Fc on 293 cells displaying the variant
Excerpt: (§1) LGde1 has a full-length G domain (i.e., LG1-5) with LG1 deleted, LGde2 has a full-length G domain with LG2 deleted, and LGde3 has a full-length G domain with LG3 deleted. Recombinant MCAM-Fc protein was able to specifically bind 293 cells expressing LAMA4 variants LG1-5, LG1-3, and LGde 1 (LG23), but not 293 cells expressing LAMA 4 variants LG4-5, LGde2 (LG13), or LGde3 (LG12).

[3] = molecular target: T1, human LAMA4 G domain (LG1-5) displayed …; experiment: flow cytometry on 293 cells displaying LAMA4 G-domain variants; % binding
Excerpt: as §1

[4] = molecular target: T3, human LAMA4 LG1-3 modules displayed on …; experiment: as above
Excerpt: as §1

| IC50 (read off the curve) [1] | binding result [2] | binding result [3] | binding result [4] | Binder |
| --- | --- | --- | --- | --- |
| ~0.03 µg/mL |  |  |  | mouse monoclonal antibody 19C12 (antibody, V domains shown, Mouse hybridoma antibody; Mouse IgG2b was used as its isotype control; also called m19C12) VH: QVQLQQSGAELVKPGASVKISCKASGYAFSTYWMNWVKQRPGEGLEWIGQIYPGDGDTNYNGKFKGKATLTADKSSSTAYMQLSSLTSEDSAVYFCARSDGYYDYWGQGTTLTVSS VL: NIVLTQSPASLAVSLGQRATISCRASESVDSYGTSFMHWYQQKPGQPPKLLICLASSLESGVPARFSGSGSRTDFTLTIDPVEADDAATYYCQQNNEDPPTFGAGTKLELKR |
|  | no binding | binds | binds | mouse MCAM-Fc fusion protein (Fc fusion, UniProt Q8R2Y2 24-563, looked up, extracellular domain; Made in house; also called mMCAM-Fc; 650-conjugated mouse MCAM-Fc; not shown: human IgG1 (Fc part of the fusion)) VPGEEKQPVPTPDLVEAEVGSTALLKCGPSRASGNFSQVDWFLIHKERQILIFRVHQGKGQREPGEYEHRLSLQDSVATLALSHVTPHDERMFLCKSKRPRLQDHYVELQVFKAPEEPTIQANVVGIHVDRQELREVATCVGRNGYPIPQVLWYKNSLPLQEEENRVHIQSSQIVESSGLYTLKSVLSARLVKEDKDAQFYCELSYRLPSGNHMKESKEVTVPVFYPAEKVWVEVEPVGLLKEGDHVTIRCLTDGNPQPHFTINKKDPSTGEMEEESTDENGLLSLEPAEKHHSGLYQCQSLDLETTITLSSDPLELLVNYVSDVQVNPTAPEVQEGESLTLTCEAESNQDLEFEWLRDKTGQLLGKGPVLQLNNVRREAGGRYLCMASVPRVPGLNRTQLVSVGIFGSPWMALKERKVWVQENAVLNLSCEASGHPQPTISWNVNGSATEWNPDPQTVVSTLNVLVTPELLETGAECTASNSLGSNTTTIVLKLVTLTTLIPDSSQTTGLSTLTVSPHTRANSTSTEKKLPQPESKGVV |
